B1: N-chimaerin (Homo sapiens), P15882-1 (parent)
chain: MALTLFDTDEYRPPVWKSYLYQLQQEAPHPRRITCTCEVENRPKYYGREFHGMISREAADQLLIVAEGSYLIRESQRQPGTYTLALRFGSQTRNFRLYYDGKHFVGEKRFESIHDLVTDGLITLYIETKAAEYIAKMTINPIYEHVGYTTLNREPAYKKHMPVLKETHDERDSTGQDGVSEKRLTSLVRRATLKENEQIPKYEKIHNFKVHTFRGPHWCEYCANFMWGLIAQGVKCADCGLNVHKQCSKMVPNDCKPDLKHVKKVYSCDLTTLVKAHTTKRPMVVDMCIREIESRGLNSEGLYRVSGFSDLIEDVKMAFDRDGEKADISVNMYEDINIITGALKLYFRDLPIPLITYDAYPKFIESAKIMDPDEQLETLHEALKLLPPAHCETLRYLMAHLKRVTLHEKENLMNAENLGIVFGPTLMRSPELDAMAALNDIRYQRLVVELLIKNEDILF

Variants of: B1
Details: with epha4_mouse Epha4, Q03137
epha4_mouse Epha4, Q03137, sequence (Q03137 whole entry): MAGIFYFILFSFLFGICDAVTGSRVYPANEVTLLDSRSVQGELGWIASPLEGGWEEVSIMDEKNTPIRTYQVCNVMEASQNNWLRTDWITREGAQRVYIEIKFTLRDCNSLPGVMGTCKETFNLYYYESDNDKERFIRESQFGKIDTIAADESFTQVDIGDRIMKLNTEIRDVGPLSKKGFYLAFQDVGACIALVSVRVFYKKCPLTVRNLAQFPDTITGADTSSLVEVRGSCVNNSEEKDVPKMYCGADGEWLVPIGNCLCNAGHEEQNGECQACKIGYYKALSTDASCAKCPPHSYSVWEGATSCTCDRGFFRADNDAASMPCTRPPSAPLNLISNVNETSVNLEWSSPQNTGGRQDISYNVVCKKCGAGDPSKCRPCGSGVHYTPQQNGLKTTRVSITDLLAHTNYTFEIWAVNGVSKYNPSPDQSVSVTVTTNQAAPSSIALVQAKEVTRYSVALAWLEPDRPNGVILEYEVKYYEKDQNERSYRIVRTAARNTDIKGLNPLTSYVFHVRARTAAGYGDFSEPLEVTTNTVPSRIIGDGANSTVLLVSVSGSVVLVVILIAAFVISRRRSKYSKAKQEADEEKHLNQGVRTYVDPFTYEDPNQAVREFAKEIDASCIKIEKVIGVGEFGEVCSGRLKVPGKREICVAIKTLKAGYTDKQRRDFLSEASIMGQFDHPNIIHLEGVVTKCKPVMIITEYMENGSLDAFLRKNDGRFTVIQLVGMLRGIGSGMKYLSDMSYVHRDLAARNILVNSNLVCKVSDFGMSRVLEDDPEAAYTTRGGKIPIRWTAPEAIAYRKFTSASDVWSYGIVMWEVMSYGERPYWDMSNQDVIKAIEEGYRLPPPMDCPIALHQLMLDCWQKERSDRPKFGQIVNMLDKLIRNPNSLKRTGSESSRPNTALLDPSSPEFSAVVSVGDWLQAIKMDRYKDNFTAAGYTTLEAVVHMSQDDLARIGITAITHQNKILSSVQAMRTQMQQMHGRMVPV

Variant	effect of a mutation on the interaction
R56L	decreasing interaction strength

— IntAct's records for PubMed 17911252
